# Measured values: the Immune Epitope Database (IEDB)
# What was measured:
# [1] = target: HLA-A*24:03; experiment: IEDB peptide-MHC binding, purified MHC/competitive/fluorescence; filed as Kd, often an IC50 or EC50 that approximates it; ≥ and ≤ were set here for values at or beyond the usual limits of such assays
# [2] = target: HLA-B*58:01; experiment: as above
# [3] = target: HLA-B*51:01; experiment: as above; details: source organism: Escherichia coli str. K-12 substr. MG1655
# [4] = target: HLA-B*07:02; experiment: IEDB peptide-MHC binding, purified MHC/competitive/fluorescence; ≥ and ≤ were set here for values at or beyond the usual limits of such assays; details: source organism: Zaire ebolavirus
# [5] = target: HLA-B*08:01; experiment: as above; details: source organism: Zaire ebolavirus
# [6] = target: HLA-A*03:01; experiment: as above; details: source organism: Zaire ebolavirus
# [7] = target: HLA-A*11:01; experiment: as above; details: source organism: Zaire ebolavirus
# [8] = target: HLA-B*15:01; experiment: as above; details: source organism: Zaire ebolavirus
# [9] = target: HLA-A*02:01; experiment: as above; details: source organism: Zaire ebolavirus
# [10] = target: HLA-C*15:02; experiment: IEDB peptide-MHC binding, purified MHC/direct/fluorescence; filed as Kd, often an IC50 or EC50 that approximates it; ≥ and ≤ were set here for values at or beyond the usual limits of such assays
# [11] = target: HLA-A*24:02; experiment: IEDB peptide-MHC binding, purified MHC/competitive/fluorescence; ≥ and ≤ were set here for values at or beyond the usual limits of such assays; details: source organism: Zaire ebolavirus
# [12] = target: HLA-C*05:01; experiment: IEDB peptide-MHC binding, purified MHC/direct/fluorescence; filed as Kd, often an IC50 or EC50 that approximates it; ≥ and ≤ were set here for values at or beyond the usual limits of such assays; details: source organism: Giardia lamblia ATCC 50803
# [13] = target: HLA-B*15:01; experiment: as above; details: source organism: Giardia lamblia ATCC 50803
# [14] = target: HLA-B*07:02; experiment: as above; details: source organism: Giardia lamblia ATCC 50803
# [15] = target: HLA-B*46:01; experiment: as above; details: source organism: Giardia lamblia ATCC 50803
# [16] = target: HLA-B*15:01; experiment: IEDB peptide-MHC binding, purified MHC/competitive/fluorescence; filed as Kd, often an IC50 or EC50 that approximates it; ≥ and ≤ were set here for values at or beyond the usual limits of such assays; details: source organism: Escherichia coli B171
# [17] = target: HLA-A*03:01; experiment: as above; details: source organism: Escherichia coli B171
# [18] = target: HLA-A*01:01; experiment: as above; details: source organism: Escherichia coli B171
# [19] = source organism: Bacillus anthracis str. A2012
sequence,measurement,setting,value
KWGKKIILF,Kd,[1]; source organism: Bacillus anthracis str. A0488,0.0003 µM
LAWQRTLKW,Kd,[2]; source organism: Escherichia coli str. K-12 substr. MG1655,0.0083 µM
same,Kd,[3],≥ 20 µM
LHPLARTAK,IC50,[4],≥ 158 µM
same,IC50,[5],≥ 277 µM
same,IC50,[6],34.6 µM
same,IC50,[7],15.4 µM
MASENSSAM,IC50,[8],21.9 µM
same,IC50,[4],28.4 µM
same,IC50,[9],12.1 µM
NAFHHPSAV,Kd,[10]; source organism: Homo sapiens,0.695 µM
NTPVYKLDI,IC50,[4],≥ 119 µM
RAFSLYMTL,Kd,[1]; [19],0.0586 µM
same,Kd,[10]; [19],0.466 µM
TAKVKNEVN,IC50,[5],≥ 365 µM
VGHMMVIFR,IC50,[8],≥ 1340 µM
same,IC50,[5],≥ 185 µM
same,IC50,[6],≥ 218 µM
same,IC50,[11],≥ 271 µM
same,IC50,[7],0.196 µM
same,IC50,[9],3.68 µM
VLASGPGPF,Kd,[12],≥ 20 µM
same,Kd,[13],0.0184 µM
same,Kd,[14],9.38 µM
same,Kd,[15],≥ 20 µM
VSALRLFNY,Kd,[2]; source organism: Escherichia coli B171,1.02 µM
same,Kd,[16],0.796 µM
same,Kd,[17],≥ 20 µM
same,Kd,[18],0.787 µM
